Experimental data as given in patent publication US20120321697A1 (GWANGJU INSTITUTE OF SCIENCE AND TECHNOLOGY, published 2012).
No end group written: not given here. vector‑coded linker = not defined here

Assays:
VCAM1-Trx [1] = molecular target: T1, VCAM1-Trx (human, UniProt P19320 25-698); assay: SPR (Biacore)
T1 construct: the form used in SPR is not described; also called Trx-VCAM1; vascular cell adhesion molecule-1; not shown: Trx (thioredoxin) fusion partner and tags of pET32a
T1 sequence (looked up): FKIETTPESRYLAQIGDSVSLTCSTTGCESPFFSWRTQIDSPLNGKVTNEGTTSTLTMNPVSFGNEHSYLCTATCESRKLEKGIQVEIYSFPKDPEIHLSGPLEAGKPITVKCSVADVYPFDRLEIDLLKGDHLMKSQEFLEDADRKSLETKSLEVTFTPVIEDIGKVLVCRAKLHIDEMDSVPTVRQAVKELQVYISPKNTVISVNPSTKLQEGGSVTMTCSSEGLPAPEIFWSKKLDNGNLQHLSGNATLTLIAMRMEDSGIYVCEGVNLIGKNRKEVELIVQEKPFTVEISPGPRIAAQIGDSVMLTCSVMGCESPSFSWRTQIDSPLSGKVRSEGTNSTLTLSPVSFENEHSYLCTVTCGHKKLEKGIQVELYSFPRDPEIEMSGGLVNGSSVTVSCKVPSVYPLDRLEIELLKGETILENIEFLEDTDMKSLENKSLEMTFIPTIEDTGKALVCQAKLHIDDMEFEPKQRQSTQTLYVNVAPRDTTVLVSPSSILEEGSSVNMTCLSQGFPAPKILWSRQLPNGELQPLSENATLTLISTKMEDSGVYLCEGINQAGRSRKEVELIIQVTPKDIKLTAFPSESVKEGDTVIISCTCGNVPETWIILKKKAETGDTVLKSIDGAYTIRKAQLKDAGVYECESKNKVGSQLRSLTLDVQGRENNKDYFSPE

VCAM1-Trx [2] = molecular target: T1, VCAM1-Trx; assay: SPR (Biacore), synthetic peptide; immobilisation of VCAM1 not described
Trx = molecular target: T2, Trx; assay: phage ELISA (anti-M13-HRP, absorbance at 450 nm), proteins coated at 5 µg/ml
T2 construct: Control for the fusion partner; also called thioredoxin; not shown: The His-tag/S-tag linker tail of pET32a, if Trx was expressed from the empty vector

TNFa = molecular target: T3, TNFa; assay: as above
T3 construct: Control protein; also called TNF-α

[3] = molecular target: T4, Fibronectin ED-B protein (recombinant, N-terminal His-tag, biotinylated where captured on streptavidin) (human, UniProt P02751 1266-1356, biotin by sulfo-NHS-SS-biotin (for biopanning, input phage ELISA and SPR on SA chip)); assay: as above
T4 construct: domain: ED-B; Expressed in E. coli BL21 from pET28b; also called fibronectin extra domain B; biotinylated-EDB; not shown: N-terminal His-tag from pET28b
T4 sequence (P02751 1266-1356): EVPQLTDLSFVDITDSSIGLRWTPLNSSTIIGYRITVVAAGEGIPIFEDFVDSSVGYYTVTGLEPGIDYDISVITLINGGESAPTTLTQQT

VEGF121 = molecular target: T5, VEGF121 (human, UniProt P15692-9 27-147); assay: as above
T5 construct: Isoform VEGF121; also called vascular endothelial growth factor
T5 sequence (looked up): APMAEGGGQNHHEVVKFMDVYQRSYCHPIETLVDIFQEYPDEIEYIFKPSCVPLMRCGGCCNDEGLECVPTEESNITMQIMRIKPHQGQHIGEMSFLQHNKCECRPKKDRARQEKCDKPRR

BSA = BSA (UniProt P02769 25-607); assay: as above
Sequence of BSA (P02769 25-607 limits assumed): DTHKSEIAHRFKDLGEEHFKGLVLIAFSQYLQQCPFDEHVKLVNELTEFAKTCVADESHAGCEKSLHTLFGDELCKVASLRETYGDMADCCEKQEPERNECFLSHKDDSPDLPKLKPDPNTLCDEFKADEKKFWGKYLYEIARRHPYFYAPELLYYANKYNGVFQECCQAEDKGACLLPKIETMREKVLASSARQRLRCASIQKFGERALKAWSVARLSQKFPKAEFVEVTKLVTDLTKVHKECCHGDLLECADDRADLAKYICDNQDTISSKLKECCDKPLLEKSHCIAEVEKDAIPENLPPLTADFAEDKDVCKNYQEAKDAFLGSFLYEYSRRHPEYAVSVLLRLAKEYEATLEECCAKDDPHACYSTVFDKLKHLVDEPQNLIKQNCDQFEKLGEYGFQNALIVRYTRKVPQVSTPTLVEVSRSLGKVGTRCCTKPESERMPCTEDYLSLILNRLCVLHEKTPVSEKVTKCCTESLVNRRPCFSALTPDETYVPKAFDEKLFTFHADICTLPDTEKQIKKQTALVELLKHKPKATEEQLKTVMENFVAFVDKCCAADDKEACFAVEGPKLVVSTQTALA

[4] = molecular target: T4, Fibronectin ED-B protein (recombinant, …); assay: phage ELISA on 10 coated proteins, absorbance at 450 nm
Procedure: Each protein (5 μg/ml) was seeded into wells (50 μl per well) in a 96-well ELISA plate and next day, all wells were washed with 0.1% PBST (Tween-20) three times, and blocked at room temperature for 2 hrs using 2% skim milk. Then, the solution was completely removed and the plate was washed with 0.1% PBST three times. Recombinant phages containing the peptide of the present invention were thoroughly mixed with 2% BSA. Each mixture (100 μl) was divided into wells coated with 10 proteins and kept to stand at 27° C. for 2 hrs. After washing with 0.1% PBST 5 times, HRP-conjugated anti-M13 antibodies (1:1,000 dilution; GE Healthcare) were added to each well and incubated at 27° C. for 1 hr. After washing with 0.1% PBST 5 times, 100 μl TMB was divided into each well to induce colorimetric reaction, followed by stopping the reaction adding 100 μl of 1 M HCl. The absorbance was measured at 450 nm.

[5] = molecular target: T4, Fibronectin ED-B protein (recombinant, …); assay: SPR (Biacore X), biotin-EDB on streptavidin chip
Procedure: (§1) We tested using a SPR device whether the purified GST-BPB protein can bind to fibronectin EDB. […] PBS (pH 7.4) was used as a running buffer and the flow rate was 30 μ1/min. The kinetics was measured in various concentrations and then the affinity was calculated using BIAevaluation.
The affinity of the GST-BPB to fibronectin ED-B was measured using the SPR biacore system.

[6] = molecular target: T4, Fibronectin ED-B protein (recombinant, …); assay: SPR (Biacore X), biotin-EDB on streptavidin chip up to 2000 RU
Procedure: as §1

B1: Peptide 1 specific to VCAM1 (Table 3c) (peptide)
peptide: QARDCTGSWTWENGKWTWKGPSICPI
notes: Synthetic peptide in SPR; also called BPB
Work on B1 yielded a koff (VCAM1-Trx [1]) of 0.1 s⁻¹, a kon (VCAM1-Trx [1]) of 330000 M⁻¹ s⁻¹ and a Kd (VCAM1-Trx [2]) of 318 nM. B1: no binding (Trx); no binding (TNFa); no binding [3]. B1: no binding (VEGF121); no binding (BSA).

B2: Peptide 2 specific to fibronectin ED-B (Table 3a) (peptide)
peptide: HCSSAVGSWTWENGKWTWKGIIRLEQ
notes: Synthetic peptide in SPR; also called tryptophan zipper
With B2 the “fold absorbance against other proteins” value [4] was 30 fold.

B3: GST-BPB fusion protein for fibronectin EDB (other)
chain: {GST-vector‑coded linker}-HCSSAVGSWTWENGKWTWKGIIRLEQ
modifications: not fully specified; reading uncertain
notes: BPB insert cloned BamHI/XhoI into pGEX4T-1, expressed in E. coli BL21; The reverse primer GST-B1 may add a few residues after the BPB; not shown: glutathione S-transferase (GST) as coded by the pGEX4T-1 vector (GE Healthcare); vector-coded linker between GST and BPB
Work on B3 yielded a koff [5] of 0.00347 s⁻¹, a kon [5] of 12200 M⁻¹ s⁻¹ and a Kd [6] of 284 nM.
